In paper PMC11235164 one finds Kd data, which are given here for 1 molecule.

The target of the test is T1, trigger factor (Escherichia coli), P0A850.
T1 chain: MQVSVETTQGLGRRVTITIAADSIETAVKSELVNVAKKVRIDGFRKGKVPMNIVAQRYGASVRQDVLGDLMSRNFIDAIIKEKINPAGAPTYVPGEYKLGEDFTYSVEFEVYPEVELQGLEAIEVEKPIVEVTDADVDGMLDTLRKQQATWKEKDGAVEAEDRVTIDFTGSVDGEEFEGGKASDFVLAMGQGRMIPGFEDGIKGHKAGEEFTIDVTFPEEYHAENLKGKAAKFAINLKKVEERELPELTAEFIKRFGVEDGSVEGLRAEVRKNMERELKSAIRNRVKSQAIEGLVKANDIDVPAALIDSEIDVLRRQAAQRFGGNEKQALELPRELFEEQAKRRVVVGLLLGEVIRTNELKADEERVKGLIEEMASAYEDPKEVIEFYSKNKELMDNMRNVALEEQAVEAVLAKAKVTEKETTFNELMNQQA
In words: microfluidic diffusional sizing. To be noted: remark: other sources report otherwise.

The term Kd denotes the concentration at which binding is half-saturated. Higher therefore signals weaker binding.

B1: trigger factor, P0A850 (protein)
chain: T1 chain
With B1, the Kd worked out at 1500 nM.
